Data as given in the DeepSol protein solubility set.

Test: soluble on expression in E. coli; label from the status in PepcDB or PDB records

Row | Sequence | soluble on expression in E. coli
1 | MGSDKIHHHHHHMNQNRIPLYEALIEFKERRPLSFHVPGHKNGLNFPQGAVEEFKDILSIDVTELSGLDDLHSPFECIDEAQQLLADVYEVEKSYFLINGSTVGNLAMILSCCREHDIVLVQRNCHKSIINGLKLAGANPIFLDSWIDEAYNVPVGIHDEIIKEAIEKYPNAKALILTHPNYYGMGMDLEASIAYAHAHKIPVLVDEAHGAHFCLGGAFPKSALAYGADIVVHSAHKTLPAMTMGSYLHINSRLVKEERVSTYLSMLQSSSPSYPIMASLDIARFTIARIKEKGHDEIVEFLREFKEELSSIPQIAILQYPLQDELKVTVQTRCQLSGYELQSVLEKVGIYTEMADPYNVLFILPLQVNKTYMKAVEMIRAALQSYEVKDKTESIRYTYKGEISPLPYTYKQLEGYETKVVSVEEAVGMIAAEMVIPYPPGIPLIMYGERITSEHKEQIMHLERAGARFQGSTKYMKVYDIESRF | not soluble
2 | MEYNPFHNGHLYHLTSARELVKPDYTIAVMSGNFCQRGEPAVIDKFARAEIALRMGVDVVLELPVVFATQDAGGFAFGAVCVLDATGVVTDVVFGSESNDIEFLQRVARILYEQPDEYQKFLHEELKKGYSFPNARKYALMRYFSMKGWNEEEVLKLEKSNDILGVEYIHSALKIGSNIRFHTIKRVGAEEKDTSFRGRFSSATAIRNLMREKRWEEVRDSLPEDSFEILMREINEGRGPVFLENMGDFLLSFFRLKNMDFFEKIHGFSEGLEKRFHVCARQTGSYRDFLECVKAKRFTFSRIRRLALFSVFEVNKEFVEKSNTKGPQYIRILGFTEKGREILSLMRKKAKLPIVTNMSLYRKVLEKTDLPVDKQLFLEQIDLDVKATNFYSMFFPSVEQRCGERDFSIHPIFLRTEM | not soluble
3 | MSRFTDKVAIITGSSNGIGQATARLLASEGAKVTVTGRNAERLEETKNILLGAGVPEGNVLVVVGDITQESVQENLIKSTLDKFGKIDILVNNAGAGIPDAQGKSGVNQSIDTYHKTFELNVQSVIEMTQKARPHLAKTQGEIVNISSIGAGPAAQVASPYYSIAKAALDQYTRTAAIDLVPEGIRVNSVSPGAVSTGFSAVSRGLTEEKSKAFYDYLGAQRECIPRGFCAVPEDIAKVIAFLADRNASNYIIGQTIVADGGTSLILGAHAHGAKMMQAVFKEL | not soluble
4 | MRLCDRDIEAWLDEGRLSINPRPPVERINGATVDVRLGNKFRTFRGHTAAFIDLSGPKDEVSAALDRVMSDEIVLDEGEAFYLHPGELALAVTLESVTLPADLVGWLDGRSSLARLGLMVHVTAHRIDPGWSGCIVLAFYNSGKLPLALRPGMLIGALSFEPLSGPAVRPYNRREDAKYRNQQGAVASRIDKD | soluble
5 | FIKLITSAKKRVWIQTPYLVPDDSVLAALKVAAASGVDVKIMIPDKPDHPFIYRATQYYGRLLMKENIEILIYNGGFLHAKTMIMDDEVCTVGSANQDIRSYKLNFEANAVLYDKKIIDQLEAIFLEDRKKCTTMTPEVVRDM | not soluble
6 | MEPPKLLGVVLTTALLFHIALTAKQAVVSRKSKLCGNVECEEVLFKARVKRVMGINNDPSFLNLAENAIISVVAVKFSDRPDIMEGKLNGEGSNGFFYAGAIDIMPFAEFLRTAITDKKEMLMISQNPADIGDKRIVGFLHSETDLVRDFNAKNAQAAAENGLPAPEPIPIPEPAHTGHGHSHGGHGHSHGGHGHSHGHPAPTPAPTPAPKPIEEAPKPAEEPVKPADLEMDAEIERLIKEEEERMKNVAEQPPLVLQSLPETPEAQKLPEEPLEPVTPEPIPEAPVPIAQYIQEPTTTPAPLEAPAPVENAPNLPTPTFSVDDLMAQAARDALNSNSIVPDAPKVEEPEPAPTPAPAPAEDPVVTPAPEELTGVCYKDDCQGLQTPPPPAPPPPAPAVPEEAQAPTPAPEEAPEAQIPAETAQIPPENAVPEAPEEPAPTTTPPPISAGEAEFLKWEEARQKREAVAAAPYEDAQAHQFVASPPPHVSSGLIELIRSSLGLGNITDSSVLLVVNLTFVAASFLVYIIIRSLSSGGESDILDRQAHFDLMNKHKQLQLQLNAKITEIQNLQANGAAAQRPEQPNYEPELLALRQQLAHLQSELQTAHAQRQEFEIHYHQIRELAEQKDHQIAQLTEQANDYQERLEKSQSELQELARHVDSARAELMDSQTSDYGRQQELMEKQAELEQIYVKIDNLTAENRDLTDKIAQLQVSDSLELEELEELRNKNLELQEQVKQLKEELEKEKSVAGSGNSGGWSDIDDNEVVEAVQPIETTPISSENSENLKKFEAEIAELKASLEKTEKELTKYRNLYNEKLTAISDKENRSQIEMEHKLKNAESDLQEAKRRAEEIGAEKKELSDRLNEMLKNLNQSMQKSAENDKMLTQLREEAFAKEKQLLEHDSVLRKKDDKIRELDAEFKRVKMEYVKLETKSFHDVRKLNMDVEELKTQLSMAGGVTSSRSIPDRLVSPLQEPIWDEPEPALQRVVLPLDGYSSMRRRSTRRSQLPFGAESPSDQEKKQAAPSHRRRSRSHGRQPPSFHDPYSMNPYLPGSSDSSFMSTSQPQFLPLNRQHSRSGHLMSNSANGPYSSGGSNGGRSPPPEMPLLSAIPPPGARKPLGKRPDSAHHLGK | not soluble
7 | AVSFIGSTENDVGPSQGSYSSTHAMDNLPFVYNTGYNIGYQNANVWRISGGFCVGLDGKVDLPVVGSLDGQSIYGLTEEVGLLIWMGDTNYSRGTAMSGNSWENVFSGWCVGNYVSTQGLSVHVRPVILKRNSSAQYSVQKTSIGSIRMRPYNGSSAGSVQTTVNFSLNPFTLNDTVT | soluble
8 | MSSERQLAGRIVVPGEPLPEEVEASPPYVIDYKGVKRATVVGLLREKGDGGGRAFVKLKEIYVPQAGDVVIGLIQSVGIMNWFVDINSPYVAVLSVQDFLGRPFNPAVDDMQSLLKVGDYIKAKVVAFDKTRSPLLTVQGEGLGRIVRGKIVEISPAKVPRVIGRKMSMLKTLEEKTECKIFVARNGRIHLECPNEDLEAIAVMAIKIIDEEAYTSGLTKRIIKFIEEERRIREV | soluble
9 | MGSDKIHHHHHHMRFPEFSGEWKKYFIRDIAEVTKGAGISKEQRSLFGTPCILYGELYTTYKSEVINDVQSKTDIDAKNLVRSKENDVIIPSSGETAIDISTARCVPYDDVLLGGDLNIIRLYQNDGRFLSYQLNGVRKLDIARVAQGSSVIHLYGESIKSLSVSLPALKEQQKIVSLLSLIDERIATQNKIIEEYKKLKNALAELFFAKSIEYTSIGEMCDVVMGQSPSSVAYNYTKNGLPLIQGNLDIFEGVTSPRMWTSDITKQCDIGDIILTVRAPVGDVAKSNMIACVGRGVCAIKVKESGCSEYVYQYLLYFKAKWGSIEQGSTFSAISRNDILNINIPVITKRLIVASHLLALFDSEISIEALNLNVYTKQKQYLLTKMFI | not soluble
10 | MLNNKRLFTSESVTEGHPDKIADQVSDAILDAILKDDPNARVACETTVTTGMALIAGEISTTTYVDIPKVVRETIKEIGYTRAKYGYDYETMAILTAIDEQSPDIAQGVDKALEYRDKDSEEEIEATGAGDQGLMFGYATNETETYMPLAIYLSHQLAKRLSDVRKDGTLNYLRPDGKVQVTVEYDENDNPVRIDTIVVSTQHAEDVTLEQIQEDIKAHVIYPTVPENLINEQTKFYINPTGRFVIGGPQGDAGLTGRKIIVDTYGGYARHGGGCFSGKDPTKVDRSAAYAARYVAKNIVAAGLADQCEVQLAYAIGVAEPVSIAIDTFGTGKVSEGQLVEAVRKHFDLRPAGIIKMLDLKQPIYKQTAAYGHFGRTDVLFPWEKLDKVEELKDAVK | not soluble
11 | ADKLRAACIRIQKTIRGWLLRKRYLCMQRAAITVQRYVRGYQARCYAKFLRRTKAATT | soluble
12 | MGSDKIHHHHHHMQFGAKPLFENISVKFGGGNRYGLIGANGCGKSTFMKILTGDLEPSSGNVSLDVNERMGKLNQDQFAYEKFSVVDTVIMGHRELWKVKQERDRIYSLPEMTEEDGIKVSELEMEFAEMDGYTAESRAGDLLLGVGIGTEQHFGLMSQIAPGFKLRVLLAQALFSDPDLLLLDEPTNNLDIDTIRWLQDMLNQRNSTMVIISHDRYFLNSVCTHMADLDYGELRVYPGNYDEYMMAATQARERLQSDNAKKKAQIAELQTFVARFSANASKAKQATSRAKQIDKIKLDDIKASSRVNPFIRFEQEKKLFRNALIVENLAKGYDKPLFSNLNLMVEVGERIAILGENGVGKTTLMRTLVHDIPQDEGTIQWSENANIGYYAQDHEADFANDMTLFDWMSQWRKPEDDDQSVRAILGRMLFGSDDIKKSVTVLSGGEKGRMYFGKLIMQKANILMLDEPTNHMDMESIESLNNALEMYEGTLMFVSHDRAFVSSLATRILEVTANGVNDFKGTYDEFLRSKGIDA | not soluble
13 | MAHHHHHHMLFVDLLNGVNVNYKRKVPICKRPTRSAEYLSNQPLHANRNVEQTSSKNGEASITNHEDEKDENILQQYIYTLSHLTIFDVDRDKSTPLNIALLLKACLASHNYIKNVEIFTSNVKNKEICSFIYERRNDFDAFFKLHVMKYIDFFGNPQIVETLKSSVDNKEMYQRELEIFNQIDGETKLRKDLLEDILFECTRLNKIIQYSLAVNNFNLFSPTVLLKLFTYFKHYGVYYSIFLNNIKKVKYYYQTKDIREEDKRKIEKIVDHYLLTLDRFNHMYEAGHVTL | not soluble
14 | MADEIAKAQVARPGGDTIFGKIIRKEIPAKIIFEDDQCLAFHDISPQAPTHFLVIPKKHISQISAAEDADESLLGHLMIVGKKCAADLGLKKGYRMVVNEGSDGGQSVYHVHLHVLGGRQMNWPPG | soluble
15 | FPDGTLGMDAAVQEDHDNGTQLDSLTLASINTDFAFSLYKELVLKNPDTNIVFSPLSISAALALVSLGAKGNTLEEILEGLKFNLTETSEADIHQGFGHLLQRLNQPKDQVQISTGSALFIEKRQQILTEFQEKAKTLYQAEAFTADFQQPRQAKKLINDYVRKQTQGMIKELVSDLDKRTLMVLVNYIYFKAKWKVPFDPLDTFKSEFYCGKRRPVIVPMMSMEDLTTPYFRDEELSCTVVELKYTGNASALFILPDQGRMQQVEASLQPETLRKWKNSLKPRMIDELHLPKFSISTDYSLEDVLSKLGIREVFSTQADLSAITGTKDLRVSQVVHKAVLDVAETGTEAAAATGVKFVPMSAKLYPLTVYFNRPFLIMIFDTETEIAPFIAKIANPK | soluble
16 | MGSDKIHHHHHHMHLGVVVPRVDDHSTIELAVEAEGHGYDSVWLNELWGASSVVELTDIATRTDDIEIGSAILNVFSRSPAVLAMTATTLDRVSDGRAVLGLGTSTARSIENMHSMEFERPVRRAHETIDIIKQLMTGDERVTYDGEAVSVRGVPPLDRDVPVYHAALGPANRRVVARLADGWLPHMIAFSELESAFDYIAETARDADRDPDDITVAPYVPAVVHEDSERATEELRQHIAYYVGSGEGYRRAVAETYPDRAERIADAWQAGDRGEATELVTDEMTADLGIAGTPEQAREKRDKIADRAVIDRLLLTVPQQVDGELARKTIRALGPN | not soluble
17 | MSLSTCPAACHCPLEAPKCAPGVGLVRDGCGCCKVCAKQLNEDCSKTQPCDHTKGLECNFGASSTALKGICRAQSEGRPCEYNSRIYQNGESFQPNCKHQCTCIDGAVGCIPLCPQELSLPNLGCPNPRLVKVTGQCCEEWVCDEDSIKDPMEEGHHHHHH | not soluble
18 | GHMNMSQSQEIVLQPRSIVVPGELLAEGEFQIPWSPYILKINSKYYSTVVGLFDVKDTQFEVIPLEGSFYYPKINDIVIGLVEDVEIYGWVVDIKAPYKAYLPASNLLGRSINVGEDLRRYLDVGDYVIARIENFDRSIDPVLSVKGKDLGRVSNGIVIDIMPVKVPRVIGKNKSMYETLTSKSGCSIFVANNGRIWATCPSRFSEEILIEAIRKIENESHIKGLTDRIKQFIEEKLGERNASSGETKTNS | soluble
